Results: US20250090676A1 (SUTRO BIOPHARMA, published 2025)
Substitutions are numbered along the chain they refer to.

B1: SRP1848-C03 (antibody, V domains shown)
VH: EVQLVESGGGLVQPGGSLRLSCAASGFNIGVYSIHWVRQAPGKGLEWVGEIYPIDGNTDYADSVKGRFTISADTSKNTAYLQMNSLRAEDTAVYYCARGSWAWRSGYSYYLDYWGQGTLVTVSS
VL: not shown
notes: IgG with common trastuzumab LC, cell-free expressed, HIS- and FLAG-tagged; also called Antibody 19
B2: SRP1848-B09 (antibody, V domains shown)
VH: EVQLVESGGGLVQPGGSLRLSCAAGGFNITNYYIHWVRQAPGKGLEWVGGITPVDGYTDYADRVKGRFTISADTSKNTAYLQMNSLRAEDTAVYYCARGAWSWRSGYGYYMDYWGQGTLVTVSS
VL: not shown
notes: IgG with common trastuzumab LC, cell-free expressed, HIS- and FLAG-tagged; also called Antibody 15
B3: SRP1848-D04 (antibody, V domains shown)
VH: B1 VH with G30S, V31H, I54R, N57I, R87S, S100Y, A102F, S108G
VL: not shown
notes: IgG with common trastuzumab LC, cell-free expressed, HIS- and FLAG-tagged; also called Antibody 26
B4: SRP1848-C04 (antibody, V domains shown)
VH: B1 VH with G30R, V31H, I54G, D55P, W101L, A102S, S105A, S108G
VL: not shown
notes: IgG with common trastuzumab LC, cell-free expressed, HIS- and FLAG-tagged; also called Antibody 20
B5: SRP1848-D10 (antibody, V domains shown)
VH: EVQLVESGGGLVQPGGSLRLSCAASGFNISRNSIHWVRQAPGKGLEWVGWISPNDGTTDYADSVKGRFTISADGSKNTAYLQMNSLRAEDTAVYYCARGAWSWRSGYGYYIDYWGQGTLVTVSS
VL: not shown
notes: IgG with common trastuzumab LC, cell-free expressed, HIS- and FLAG-tagged; also called Antibody 30
B6: SRP1848-E05 (antibody, V domains shown)
VH: B1 VH with L20V, S33Y, E50G, Y52T, I54N, N57Y, S100F, S108G
VL: not shown
notes: IgG with common trastuzumab LC, cell-free expressed, HIS- and FLAG-tagged; also called Antibody 34
B7: SRP1848-D07 (antibody, V domains shown)
VH: B2 VH with G25S, T30S, N31K, T52S, V54N, R63S, T69A, A100F, S102A, M111L
VL: not shown
notes: IgG with common trastuzumab LC, cell-free expressed, HIS- and FLAG-tagged; also called Antibody 28
B8: SRP1848-E01 (antibody, V domains shown)
VH: B2 VH with G25S, Y32K, V54F, Y57F, R63S, A100S, R104P, S105A, M111Q
VL: not shown
notes: IgG with common trastuzumab LC, cell-free expressed, HIS- and FLAG-tagged; also called Antibody 31
B9: SRP1848-C05 (antibody, V domains shown)
VH: B1 VH with G30R, V31K, E50D, Y52F, N57I, T58N, A102S, R104K, S105A, S108G
VL: not shown
notes: IgG with common trastuzumab LC, cell-free expressed, HIS- and FLAG-tagged; also called Antibody 21
B10: SRP1848-B05 (antibody, V domains shown)
VH: EVQLVESGGGLVQPGGSLRLSCAASGFNISNYYIHWVRQAPGKGLEWVGGISPIDGYTDYADSMKGRFTISADTSKNTAYLQMSSLRAEDTAVYYCARGSWFWQSGYGYYLDYWGQGTLVTVSS
VL: not shown
notes: IgG with common trastuzumab LC, cell-free expressed, HIS- and FLAG-tagged; also called Antibody 12
B11: SRP1848-F02 (antibody, V domains shown)
VH: EVQLVESGGGLVQPGGSLRLSCAASGFNIRTYSIHWVRQAPGKGLEWVGSIFPNDGTTDYADSVKGRLTISADTSKNTAYLQMNSLRAEDTAVYYCARGSWSWQAGYGYYLDYWGQGTLVTVSS
VL: not shown
notes: IgG with common trastuzumab LC, cell-free expressed, HIS- and FLAG-tagged; also called Antibody 38
B12: SRP1848-B06 (antibody, V domains shown)
VH: B2 VH with G25S, T30S, V54I, R63S, A100F, R104P, M111Q
VL: not shown
notes: IgG with common trastuzumab LC, cell-free expressed, HIS- and FLAG-tagged; also called Antibody 13
B13: SRP1848-A07 (antibody, V domains shown)
VH: B1 VH with V31Y, Y32H, Y52F, I54V, N57T, Q82H, S100F, S108G
VL: not shown
notes: IgG with common trastuzumab LC, cell-free expressed, HIS- and FLAG-tagged; also called Antibody 5
B14: SRP1848-B03 (antibody, V domains shown)
VH: B1 VH with G30S, V31M, Y32K, S33Y, E50G, Y52T, N57M, A102S, R104P
VL: not shown
notes: IgG with common trastuzumab LC, cell-free expressed, HIS- and FLAG-tagged; also called Antibody 10
B15: SRP1848-B01 (antibody, V domains shown)
VH: B1 VH with G30R, V31N, I54V, N57I, S100F, A102S, R104P, Y110F
VL: not shown
notes: IgG with common trastuzumab LC, cell-free expressed, HIS- and FLAG-tagged; also called Antibody 9
B16: SRP1848-B04 (antibody, V domains shown)
VH: B1 VH with G26S, G30S, V31N, Y32H, I54V, N57I, S100R, W101Y, A102S, S105A
VL: not shown
notes: IgG with common trastuzumab LC, cell-free expressed, HIS- and FLAG-tagged; also called Antibody 11
B17: SRP1848-F01 (antibody, V domains shown)
VH: B11 VH with L68F, S102A, Q104R, G108S
VL: not shown
notes: IgG with common trastuzumab LC, cell-free expressed, HIS- and FLAG-tagged; also called Antibody 37
B18: SRP1848-A01 (antibody, V domains shown)
VH: EVQLVESGGGLVQPGGSLRLSCAASGFNITRYSIHWVRQAPGKGLEWVAGILPESGGTSYADSVKGRFTISADTSKNTAYLQMNSLRAEDTAVYYCARHIYPWDWFSNYVLDYWGQGTLVTVSS
VL: not shown
notes: IgG with common trastuzumab LC, cell-free expressed, HIS- and FLAG-tagged; also called Antibody 1
B19: SRP1848-A02 (antibody, V domains shown)
VH: EVQLVESGGGLVQPGGSLRLSCAASGFNISGFRIHWVRQAPGKGLEWVAGIYPESGATYYADSVKGRFTISADTSKNTAYLQMNSLRAEDTAVYYCARHLYVWDWVLDHVLDYWGQGTLVTVSS
VL: not shown
notes: IgG with common trastuzumab LC, cell-free expressed, HIS- and FLAG-tagged; also called Antibody 2

Biological target: T1, human FOLR1-HIS (human, UniProt P15328 25-233)
T1 construct: Analyte of the Biacore assay; also called FolRα-ECD; extracellular domain of FOLR1; not shown: HIS tag
T1 sequence (P15328 25-233 limits assumed): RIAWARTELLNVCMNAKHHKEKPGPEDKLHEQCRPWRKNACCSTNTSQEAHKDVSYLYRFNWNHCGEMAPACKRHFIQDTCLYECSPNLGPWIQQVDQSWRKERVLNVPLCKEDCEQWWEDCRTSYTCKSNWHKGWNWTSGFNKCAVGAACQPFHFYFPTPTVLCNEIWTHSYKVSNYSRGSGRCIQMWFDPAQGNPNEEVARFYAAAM
Assay: SPR (Biacore), antibody captured on anti-Fc, human FOLR1-HIS analyte, 25 C
Description: Anti-Fc polyclonal antibodies were immobilized onto a CM5 chip (GE Life Sciences) using amine coupling chemistry (from Amine Coupling Kit, GE Life Sciences). The immobilization steps were carried out at a flow rate of 25 μL/min in 1×HBS-EP+ buffer (GE Life Sciences; 10× Stock diluted before use). […] Ethanolamine (1 M, pH 8.5) was injected for 7 min to block any remaining activated groups. An average of 12,000 response units (RU) of capture antibody was immobilized on each flow cell.
Off-rate and kinetic binding experiments were performed at 25° C. using 1×HBS-EP+ buffer. […] Between each ligand capture and analyte binding cycle, regeneration was carried out using 2 injections of 10 mM glycine pH 2.0 for 30 seconds at 30 μL/min, followed by a 30 second buffer wash step.
The data were fit with the Biacore T200 Evaluation software, using a 1:1 Langmuir binding model. KD (affinity, nM) was determined as a ratio of the kinetic rate constants calculated from the fits of the association and dissociation phases.

Row | Binder | Kd [nM] | koff [s⁻¹] | kon [M⁻¹ s⁻¹]
1 | B1 | 1.11 | 0.00152 | 1.36e+06
2 | B2 | 4.26 | 0.00661 | 1.55e+06
3 | B3 | 3.48 | 0.00173 | 497000
4 | B4 | 3.86 | 0.00499 | 1.29e+06
5 | B5 | 4.95 | 0.00558 | 1.13e+06
6 | B6 | 3.51 | 0.00251 | 716000
7 | B7 | 4.7 | 0.00511 | 1.09e+06
8 | B8 | 7.87 | 0.00522 | 664000
9 | B9 | 4.29 | 0.00454 | 1.06e+06
10 | B10 | 9.07 | 0.00885 | 976000
11 | B11 | 4.49 | 0.00637 | 1.42e+06
12 | B12 | 5.1 | 0.00317 | 620000
13 | B13 | 0.855 | 0.000866 | 1.01e+06
14 | B14 | 7.63 | 0.00859 | 1.13e+06
15 | B15 | 3.67 | 0.00416 | 1.13e+06
16 | B16 | 1.5 | 0.00117 | 780000
17 | B17 | 3.18 | 0.00362 | 1.14e+06
18 | B18 | 1.87 | 0.00155 | 829000
19 | B19 | 16.8 | 0.00882 | 525000
